This is an account of results in patent US20110126301A1 (WALTER AND ELIZA HALL INSTITUTE OF MEDICAL RESEARCH, published 2011).

Test [1] has as its target T1, human 5B6 (CLEC9A), membrane bound (human, UniProt Q6UXN8 1-241).
T1 construct: Full length on transfectant cells or native on human blood BDCA-3+ DC; also called h5B6; HEEE9341
Briefly: flow cytometry on transiently transfected 293T cells; anti-FLAG 9H10-biotin and streptavidin-PE. An excerpt:
To identify binding partners for the 5B6 molecule, the inventors generated soluble FLAG-tagged m5B6 and h5B6 which encompassed the ectodomain of 5B6 including the stalk region and the C-type lectin-like domain (CTLD), denoted in FIG. 11A as “Original (with stalk)”. A soluble FLAG-tagged ectodomain version of the C-type lectin Cire was also generated as a control molecule. […] Thus, soluble 5B6 can interact with membrane bound 5B6 in a cross-species manner.
(A flow cytometer gives signals particle by particle.)

In test [2] the target is T1, human 5B6 (CLEC9A), membrane bound. Kind of test: flow cytometry on cells expressing 5B6.

T1 sequence (Q6UXN8 whole entry): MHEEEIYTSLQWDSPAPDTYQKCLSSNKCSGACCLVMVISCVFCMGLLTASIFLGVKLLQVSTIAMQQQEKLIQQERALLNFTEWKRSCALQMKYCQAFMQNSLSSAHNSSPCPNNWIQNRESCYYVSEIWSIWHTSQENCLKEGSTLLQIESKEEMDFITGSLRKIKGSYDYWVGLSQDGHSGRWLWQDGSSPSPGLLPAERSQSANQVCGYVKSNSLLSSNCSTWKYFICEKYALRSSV

B1: soluble FLAG-tagged human 5B6 including stalk (receptor)
chain: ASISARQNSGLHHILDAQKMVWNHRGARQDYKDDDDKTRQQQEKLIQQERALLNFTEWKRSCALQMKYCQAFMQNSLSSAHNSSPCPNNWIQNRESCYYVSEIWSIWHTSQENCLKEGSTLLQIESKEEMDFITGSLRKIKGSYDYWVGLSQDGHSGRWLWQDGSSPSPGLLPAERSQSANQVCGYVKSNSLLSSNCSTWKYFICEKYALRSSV
notes: also called soluble h5B6; soluble human 5B6
Regarding B1, in test [1], the binding result is “binds”.

B2: rat mAb 24/04-10B4 (anti-5B6 / anti-Clec9A antibody) (antibody, V domains shown)
VH: AVQIVESGGGLVQPKESLKISCTASGFTFSNAAIYWVRQTPGKGLEWVGRIRTRPSKYATDYADSVRGRFTISRDDSKSMVYLQMDNLRTEDTAMYYCTPRATEDVPFYWGQGVMVTVSS
VL: DIVMTQTPSSQAVSAGEKVTMNCKSSQSVLYDENKKNYLAWYQQKSGQSPKLLIYWASTGESGVPDRFIGSGSGTDFTLTISSVQAEDLAVYYCQQYYDFPPTFGGGTKLELKR
notes: Rat IgG2a, kappa, from hybridoma 24/04-10B4 (peptide immunisation); Used biotinylated or APC-conjugated in flow cytometry; also called anti-m5B6 mAb; anti-5B6 mAb
As for B2, in test [2], the binding result is “binds”.

B3: soluble FLAG-tagged mouse 5B6 including stalk (receptor)
chain: ASISARQNSGLHHILDAQKMVWNHRGARQDYKDDDDKTREQQERLIQQDTALVNLTQWQRKYTLEYCQALLQRSLHSGTDASTGPVLLTSPQMVPQTLDSKETGSDCSPCPHNWIQNGKSCYYVFERWEMWNISKKSCLKEGASLFQIDSKEEMEFISSIGKLKGGNKYWVGVFQDGISGSWFWEDGSSPLSDLLPAERQRSAGQICGYLKDSTLISDKCDSWKYFICEKKAFGSCI
notes: also called soluble m5B6; soluble mouse 5B6
B3: the binding result in test [1] is listed as “binds”.
